# Reference: patent US20250297232A1, “BACTERIAL MYELOPEROXIDASE-CATALASE AND APPLICATIONS THEREOF” (priority 2022, published 2025)
# “Also recorded” adds a separate entry of the source.
# B1: H407A: RbMPO with active site mutation H407A, generated by site-directed mutagenesis (protein)
# chain: MLFWSKRTRKHPGRKRRRLRSEQLESRQLLAADFGGYRHNIYDAEDVNDDGRVSAIDALLVINAMTSETSRDENVFTDVNGDGRRSALDALRVINRIERGDVFPIDTSGDEDLNTLLPEMPSEVRSIDGSGNNPNDHLWGSVGQRLIRMAPAAYGDGISTLAGANRPSAREVSNVLSAMNTSQVLNDRGLSAFVYVWGQFIDHDLGLTESDEHGEAIDISVPEGDLWFDPMGSGEAVIPMTRTPIADGTGTSVGNPAQQFNQITAFIDGSMVYGSDAATAERLRTFAGGRLAISDNGLLPMDESGMVIAGDVRASENVGLTAIQTLFVREHNRLADEIFAADPEATDEEIYQRARLVVASLIQSITYNEFLPALLGQRAMDSYRGYDASVNPGIANEFSTAAFRLGASTLRDEVGFMSNDGRESKDEMELKDAFFHASMLEETGIDSLLKFDASVQAQEIDLAVVDSLRNFLFGPPGAGGLDLVAMNIQRGRDHGLSDYNTTRQAYGLDRVETFDQITGDVELQQKLASLYGTVDNIDLWVGLMAEDHQHDASVGELTGLIIADQFQRTRDGDRFFYKNVLTDSEVESIERSTLADLIERNTSVDGLQENVFFMQVELRGRVILASSIPPNTMPSEVREEEIRGVSGMAIELIDASGKLVDSTVSDQHGNYRFRALSETGDYQVRLSESGEAMDVLVAHGAERIRGLDFIVLA
# B2: N317M: RbMPO with active site mutation N317M, generated by site-directed mutagenesis (protein)
# chain: MLFWSKRTRKHPGRKRRRLRSEQLESRQLLAADFGGYRHNIYDAEDVNDDGRVSAIDALLVINAMTSETSRDENVFTDVNGDGRRSALDALRVINRIERGDVFPIDTSGDEDLNTLLPEMPSEVRSIDGSGNNPNDHLWGSVGQRLIRMAPAAYGDGISTLAGANRPSAREVSNVLSAMNTSQVLNDRGLSAFVYVWGQFIDHDLGLTESDEHGEAIDISVPEGDLWFDPMGSGEAVIPMTRTPIADGTGTSVGNPAQQFNQITAFIDGSMVYGSDAATAERLRTFAGGRLAISDNGLLPMDESGMVIAGDVRASEMVGLTAIQTLFVREHNRLADEIFAADPEATDEEIYQRARLVVASLIQSITYNEFLPALLGQRAMDSYRGYDASVNPGIANEFSTAAFRLGHSTLRDEVGFMSNDGRESKDEMELKDAFFHASMLEETGIDSLLKFDASVQAQEIDLAVVDSLRNFLFGPPGAGGLDLVAMNIQRGRDHGLSDYNTTRQAYGLDRVETFDQITGDVELQQKLASLYGTVDNIDLWVGLMAEDHQHDASVGELTGLIIADQFQRTRDGDRFFYKNVLTDSEVESIERSTLADLIERNTSVDGLQENVFFMQVELRGRVILASSIPPNTMPSEVREEEIRGVSGMAIELIDASGKLVDSTVSDQHGNYRFRALSETGDYQVRLSESGEAMDVLVAHGAERIRGLDFIVLA
# B3: H203A: RbMPO with active site mutation H203A, generated by site-directed mutagenesis (protein)
# chain: MLFWSKRTRKHPGRKRRRLRSEQLESRQLLAADFGGYRHNIYDAEDVNDDGRVSAIDALLVINAMTSETSRDENVFTDVNGDGRRSALDALRVINRIERGDVFPIDTSGDEDLNTLLPEMPSEVRSIDGSGNNPNDHLWGSVGQRLIRMAPAAYGDGISTLAGANRPSAREVSNVLSAMNTSQVLNDRGLSAFVYVWGQFIDADLGLTESDEHGEAIDISVPEGDLWFDPMGSGEAVIPMTRTPIADGTGTSVGNPAQQFNQITAFIDGSMVYGSDAATAERLRTFAGGRLAISDNGLLPMDESGMVIAGDVRASENVGLTAIQTLFVREHNRLADEIFAADPEATDEEIYQRARLVVASLIQSITYNEFLPALLGQRAMDSYRGYDASVNPGIANEFSTAAFRLGHSTLRDEVGFMSNDGRESKDEMELKDAFFHASMLEETGIDSLLKFDASVQAQEIDLAVVDSLRNFLFGPPGAGGLDLVAMNIQRGRDHGLSDYNTTRQAYGLDRVETFDQITGDVELQQKLASLYGTVDNIDLWVGLMAEDHQHDASVGELTGLIIADQFQRTRDGDRFFYKNVLTDSEVESIERSTLADLIERNTSVDGLQENVFFMQVELRGRVILASSIPPNTMPSEVREEEIRGVSGMAIELIDASGKLVDSTVSDQHGNYRFRALSETGDYQVRLSESGEAMDVLVAHGAERIRGLDFIVLA
# B4: D202A, E316A: double mutant of RbMPO with active site mutations D202A and E316A (protein)
# chain: MLFWSKRTRKHPGRKRRRLRSEQLESRQLLAADFGGYRHNIYDAEDVNDDGRVSAIDALLVINAMTSETSRDENVFTDVNGDGRRSALDALRVINRIERGDVFPIDTSGDEDLNTLLPEMPSEVRSIDGSGNNPNDHLWGSVGQRLIRMAPAAYGDGISTLAGANRPSAREVSNVLSAMNTSQVLNDRGLSAFVYVWGQFIAHDLGLTESDEHGEAIDISVPEGDLWFDPMGSGEAVIPMTRTPIADGTGTSVGNPAQQFNQITAFIDGSMVYGSDAATAERLRTFAGGRLAISDNGLLPMDESGMVIAGDVRASANVGLTAIQTLFVREHNRLADEIFAADPEATDEEIYQRARLVVASLIQSITYNEFLPALLGQRAMDSYRGYDASVNPGIANEFSTAAFRLGHSTLRDEVGFMSNDGRESKDEMELKDAFFHASMLEETGIDSLLKFDASVQAQEIDLAVVDSLRNFLFGPPGAGGLDLVAMNIQRGRDHGLSDYNTTRQAYGLDRVETFDQITGDVELQQKLASLYGTVDNIDLWVGLMAEDHQHDASVGELTGLIIADQFQRTRDGDRFFYKNVLTDSEVESIERSTLADLIERNTSVDGLQENVFFMQVELRGRVILASSIPPNTMPSEVREEEIRGVSGMAIELIDASGKLVDSTVSDQHGNYRFRALSETGDYQVRLSESGEAMDVLVAHGAERIRGLDFIVLA
# B5: Q199A: RbMPO with active site mutation Q199A, generated by site-directed mutagenesis (protein)
# chain: MLFWSKRTRKHPGRKRRRLRSEQLESRQLLAADFGGYRHNIYDAEDVNDDGRVSAIDALLVINAMTSETSRDENVFTDVNGDGRRSALDALRVINRIERGDVFPIDTSGDEDLNTLLPEMPSEVRSIDGSGNNPNDHLWGSVGQRLIRMAPAAYGDGISTLAGANRPSAREVSNVLSAMNTSQVLNDRGLSAFVYVWGAFIDHDLGLTESDEHGEAIDISVPEGDLWFDPMGSGEAVIPMTRTPIADGTGTSVGNPAQQFNQITAFIDGSMVYGSDAATAERLRTFAGGRLAISDNGLLPMDESGMVIAGDVRASENVGLTAIQTLFVREHNRLADEIFAADPEATDEEIYQRARLVVASLIQSITYNEFLPALLGQRAMDSYRGYDASVNPGIANEFSTAAFRLGHSTLRDEVGFMSNDGRESKDEMELKDAFFHASMLEETGIDSLLKFDASVQAQEIDLAVVDSLRNFLFGPPGAGGLDLVAMNIQRGRDHGLSDYNTTRQAYGLDRVETFDQITGDVELQQKLASLYGTVDNIDLWVGLMAEDHQHDASVGELTGLIIADQFQRTRDGDRFFYKNVLTDSEVESIERSTLADLIERNTSVDGLQENVFFMQVELRGRVILASSIPPNTMPSEVREEEIRGVSGMAIELIDASGKLVDSTVSDQHGNYRFRALSETGDYQVRLSESGEAMDVLVAHGAERIRGLDFIVLA
# B6: D202A: RbMPO with active site mutation D202A, generated by site-directed mutagenesis (protein)
# chain: MLFWSKRTRKHPGRKRRRLRSEQLESRQLLAADFGGYRHNIYDAEDVNDDGRVSAIDALLVINAMTSETSRDENVFTDVNGDGRRSALDALRVINRIERGDVFPIDTSGDEDLNTLLPEMPSEVRSIDGSGNNPNDHLWGSVGQRLIRMAPAAYGDGISTLAGANRPSAREVSNVLSAMNTSQVLNDRGLSAFVYVWGQFIAHDLGLTESDEHGEAIDISVPEGDLWFDPMGSGEAVIPMTRTPIADGTGTSVGNPAQQFNQITAFIDGSMVYGSDAATAERLRTFAGGRLAISDNGLLPMDESGMVIAGDVRASENVGLTAIQTLFVREHNRLADEIFAADPEATDEEIYQRARLVVASLIQSITYNEFLPALLGQRAMDSYRGYDASVNPGIANEFSTAAFRLGHSTLRDEVGFMSNDGRESKDEMELKDAFFHASMLEETGIDSLLKFDASVQAQEIDLAVVDSLRNFLFGPPGAGGLDLVAMNIQRGRDHGLSDYNTTRQAYGLDRVETFDQITGDVELQQKLASLYGTVDNIDLWVGLMAEDHQHDASVGELTGLIIADQFQRTRDGDRFFYKNVLTDSEVESIERSTLADLIERNTSVDGLQENVFFMQVELRGRVILASSIPPNTMPSEVREEEIRGVSGMAIELIDASGKLVDSTVSDQHGNYRFRALSETGDYQVRLSESGEAMDVLVAHGAERIRGLDFIVLA
# Tests used:
# [1] = Heme reconstitution of apo wt and mutated RbMPOs (tryptophan fluorescence quenching); format: binding; settings: 1 μM enzyme; for k2: heme reconstitution of apo enzyme, 50 mM sodium phosphate pH7.5, 25° C.
# Method: Sample dilutions were performed in a 50 mM pH7.5 sodium phosphate buffer.
# [2] = Steady-state kinetics by stopped-flow, NaSCN (hypothiocyanate formation, 240 nm); format: biochemical; settings: for substrate specificity: from steady-state NaSCN, NaBr and NaCl ranges
# Method: (§1) pH- and temperature-dependent studies were carried out for each substrate.
# (§2) These temperatures were reached by using a stopped-flow coupled to a cryostat.
# (§3) For temperature and pH measurements, RbMPO was set at the same concentration as in the determination of steady state kinetics parameters.
# [3] = Chlorination activity with APF probe, NaCl range; format: biochemical; settings: linear increase of kss, 1 μM RbMPOs, 79 μM H2O2, 10 μM APF
# Description: The chlorination activity of myeloperoxidases can be determined using the aminophenyl fluorescein (APF) probe. One can indeed detect the oxidation of APF (non-fluorescent) by HOCl into fluorescein, a fluorescent molecule that is detectable at λex=485 nm and λem=525 nm. According to such test, the fluorescence measured is proportional to the quantity of fluorescein, which itself is proportional to the quantity of HOCl produced by the myeloperoxidase.
# Measurements of chlorination activity were herein performed in Corning 384-well clear-bottom (flat-bottom) plates with a reaction volume of 20 μL, in triplicate at 37° C., and in a 50 mM NaPi buffer at pH7.5. […] A 10 to 30 minutes kinetic was performed for each range value and the fluorescence intensity was compared to that of the standard fluorescein range. Thus, the measured fluorescence is proportional to the amount of fluorescein, which in turn is proportional to the amount of HOCl produced by the RbMPOs.
# The slopes were measured at the onset of the reaction in order to be in initial velocity. From these values, it was possible to calculate the kss with the following equation: […]
# where slopes in FI.pmoles^−1 corresponds to the slope of the fluorescein standard range: 2.95 10^6+1.13 10^5.
# [4] = Steady-state kinetics by stopped-flow, NaBr (Tau-NHBr formation, 289 nm); format: biochemical; settings: 300 nM enzyme, 79 μM H2O2; for kss/[Br^−]: NaBr range, linear (k2)
# Method: as §1, §2, §3
Molecule,k2 [1] [M⁻¹ s⁻¹],"activity in presence of SCN^− (NaSCN range), in words ([2]; 300 nM enzyme, 79 μM H2O2)",substrate specificity [2],"k2 ([2]; NaSCN range, linear increase of kss, 300 nM enzyme, 79 μM H2O2) [M⁻¹ s⁻¹]",k2 [3],kss/[Br^−] [4] [M⁻¹ s⁻¹],"Kd ([1]; heme reconstitution, saturation of active site by heme, pH7.5, 25° C.) [µM]","activity with Br^− (NaBr range), in words [4]"
B1,1320 ± 18.9,not active; also recorded: scatter plot,greater specificity for Br^− than for SCN^−,–,–,–,–,–
B2,–,–,higher specificity for SCN^− than Br^−,1074 ± 53,–,–,–,–
B3,1840 ± 167,–,higher specificity for SCN^− than Br^−,–,no catalytic constant could be determined; also recorded: scatter plot,73.94 ± 15.07,–,–
B4,–,–,active only for SCN^−,–,–,–,10.9,lack of RbMPO activity
B5,1720 ± 133,not active,only active for Br,–,–,78.19 ± 22.00,–,–
B6,–,–,higher specificity for SCN^− than Br^−,–,–,–,–,–
